Experimental data from the DeepSol protein solubility set.

Test: soluble on expression in E. coli; label from the status in PepcDB or PDB records

Sequence	soluble on expression in E. coli
MCPEFQRKAAGAPRMGAMLARCVLTAALALQAAAAARAVEIEIGVASRGVVDGLEFVQFSADERTMATTHWGNVVHLWDLKTLRVRSSVSVANRDFDFDLSPDGRALAVWNEEGKGEIELYDTDNGQPARALPAPRLPQGESRRGRSLVYRDDGTLEFVSHGWIGGHARKAYLLAVPAGQPRAAETPLPALVNSVAFRKSAVMDQGRLLLAGVDGADDELAIMDIASGRMLAREPGFRIASYAADARRAVFVEADGKQRILAFDFSSRSLSTLPRWTGSGKFQPYRFVAGTRFLVLAPDEPDASTRRAAPGIYDLQTRRLHRLPPDADPGSIDVWGATASYVLCNPDHTACQAEVADLAISRKLGTFAVQPSADFRTWISPSGSMVVVGGADDGTMMVWSVKEQRVIGPNLEHHHHHH	not soluble
MGSDKIHHHHHHQTDTSDERATDSTTAEVTIIYNDERDPLEGFNRAMWDFNYQFLDKYFYRPVAHGYNDILPRPVKTGVNNFVLNFEEPSSMVNNALQGKWGWAANAGGRFTINTTIGLLGVIDVADMMGLQRKQDEFNEVLGYYGVPNGPYFMAPFLGPYVTRELASDWVDGLYFPLSELTMWQSLAKWGLKNLHRRASAIDQERLVDNALDPYTFVKEAYFQHLDYKVYDGDIPVSTDDDELLDEYMTELD	not soluble
MPKPVIAIVGRPNVGKSTIFNRIVGERVSIVEDIPGVTRDRIYSAGEWLNHEFNIIDTGGIDIGDEPFLTQIRQQAEVAIDEADVIIFMTNGRDGVTAADEEVAKILYRSNKPVVLAVNKVDNPEMRSDIYDFYALGFGEPFPISGTHGLGLGDLLDEAAQHFPKIEEDGYDEDTIRFSLIGRPNVGKSSLVNALLGQERVIVSNVAGTTRDAVDTPYSKDGKDYVIIDTAGMRKKGKVYESTEKYSVLRALRAIERSDVVLVVLDGEEGIIEQDKKIAGYAHDSGRAVVIVVNKWDAVKKDEKTMKAFEENIRAHFQFLEYAPIVFLSAKTRKRTQTLIPVIDEVNESHSIRIQTNVLNDVIMDAVAMNPTPTHNGSRLKIFYATQVAVKPPTFVVFVNDPELLHFSYERFLKNRLRESFGFVGTPIHIIARARD	soluble
AVNGKGMNPDYKAYLMAPLKKIPEVTNWETFENDLRWAKQNGFYAITVDFWWGDMEKNGDQQFDFSYAQRFAQSVKNAGMKMIPIISTHQCGGNVGDDCNVPIPSWVWNQKSDDSLYFKSETGTVNKETLNPLASDVIRKEYGELYTAFAAAMKPYKDVIAKIFLSGGPAGELRYPSYTTSDGTGYPSRGKFQAYTEFAKSKFRLWVLNKYGSLNEVNKAWGTKLISELAILPPSDGEQFLMNGYLSMYGKDYLEWYQGILENHTKLIGELAHNAFDTTFQVPIGAKIAGVHWQYNNPTIPHGAEKPAGYNDYSHLLDAFKSAKLDVTFTCLEMTDKGSYPEYSMPKTLVQNIATLANEKGIVLNGENALSIGNEEEYKRVAEMAFNYNFAGFTLLRYQDVMYNNSLMGKFKDLLGVTPVMQTIVVKNVPTTIGDTVYITGNRAELGSWDTKQYPIQLYYDSHSNDWRGNVVLPAERNIEFKAFIKSKDGTVKSWQTIQQSWNPVPLKTTSHTSSW	soluble
MTGDKEIITMTFKIWQIGLHLQQQEAAAVAIVRGAKECFLQRWWRLPLAHDIIKDGRIVDAQQLAKTLLPWSRELPQRHHIMLAFPASRTLQRSFPRPSMSLGEREQTAWLSGTMARELDMDPDSLRFDYSEDSLSPAYNVTAAQSKELATLLTLAERLRVHVSAITPDASALQRFLPFLPSHQQCLAWRDNEQWLWATRYSWGRKLAVGMTSAKELAAALSVDPDSVAICGEGGFDPWEAVSVRQPPLPPPGGDFAIALGLALGKAY	not soluble
MSLGAQTLEYWVYSDFAQGEALALQQDFIKEFQESHPGVTVNIVGKGDDDLTAGQIAGAASGNLPDVFMNAVGVGAQLVDVGALANIHDKWMAMPEEFRAQFNKGAVENCAPRPEEMYCIPYTGYGTLLFRNLTVLEEAGIDTSAPPADWADWLAQMEKVKAAGKFAIPDQALVFNSIAEMYGVTGDVSTWGIDWESKTTRIDPAVMTSVLEKFVAMQPLTSGTSRNDQATKDLFVTNQLAFHTIGPWVNPTYVEAVENSGLKYDFVLMPGETADKHGGIKNFEIVGVAPGENLDLAFEFATYITAKEQMARWAKLLSRYNSNDAAMAEADVAALPLVARSVAAVEVTMDVSPPYLIQPVPACYQSTVVDYVSATADGEFTPEEGAAEMIAELNDCLAGEGHHHHHH	soluble
MGSDKIHHHHHHMENLTLKGKVILEGIIELETGMHIGGTKETLKIGGTDNPVIRDAFGRILIPGSSLKGKIRALLERKDGKYKEDGRGNYLPHDCGECEICKIFGPHDSKNIKEPVRVIVRDAYLQPEENKKDYDYLEIKVENTIDRLKGTTIKGGIRNMERVVAGSKFKFEVVFNIYKESDKELIKKFIEGMKLLEDDYLGGSGSRGYGKIKFRDIKLICKPKEYYEGNENSKKESDEVESLNELESELDKIWGGINFN	not soluble
MSLQPVAKTEQPEGGILYDFGKETFGFITLKNLSGKGKIDLYYGESPEEAKDKAYCETLDKLLLEPGQITDLAIRSTSPLHHSDNEYTLENSKAFRYVYITHEPEVQIGEVSMQYEYLPEEYRGNFRCNDEELNCIWEVGAYTMHLTTREFFIDGIKRDRWVWSGDAIQSYLMNYYLFFDSESVKRTIWLLRGKDPVTSHSNTIMDYTFYWFLSVYDYYMYSGDRHFVNQLYPRMQTMMDYVLGRTNKNGMVEGMSGDWVFVDWADGYLDKKGELSFEQVLFCRSLETMALCADLVGDKDGQQKYEKLASALKAKLEPTFWNNQKQAFVHNCVDGRQSDAVTRYANMFSVFFDYLNADKQQAIKQSVLLNDEILKITTPYMRFYELEALCALGEQETVMKEMKAYWGGMLKAGATSFWEKYNPEESGTQHLAMYGRPYGKSLCHAWGASPIYLLGKYYLGVKPTKEGYKEFAVSPVLGGLKWMEGTVPTPNGDIHVYMDNKTIKVKATEGKGYLTIQSRRQPKANMGTVEKVSEGVWRLWIDSPEERIVTYRLEGHHHHHH	soluble
MATMARWERIVEGVKSIALIKRKIISRGKRIALLVDGPNILRKELGVHLEDIVEALSSLGNIRVAKVILNQYAPQSLIEAVSNQGFEPVIVAGEIGVKLAVEAMREVYNPNIDIIALATRNTEFVPIILKAKEKGKETAIIGVEPGFSSALKHAADYVIVLESRGELSEEGNIEDIEEGKGEGGRGRRKNDRLDN	soluble
MGSDKIHHHHHHMSEPIIISIHNYKSAGVTFYSIIDRQFKKDEILNSDLLGMDDTYLMLSQADEKIINKIKIIHGHFPFGLDRLLPQKSTYITFLRNPIERLISDYYYCKDFALAHNHSYASTMSFKEYLSCSDILNIDNGQTRFVAGGENVPYGDNSIEMLNRAIENIEKRFSFVGITEKFDESLLIANAVFSWNQYYYTSKNITSSKSYDFDEETWELLRKRNFLDLQLYEYALKKHAGDLKKIPYVKLKMILLKTLKSLFVVTKSIYAPVKKRFFR	not soluble
MGSDKIHHHHHHMPFRRPCAINRPPLTSGCQGHPLSSRRAAQGPGGFFYRHKDMAMTQKRALGLDFGTTNTVMALSDTGSASHSMRFTSSAGTDDSMRTALSFMKDAGLGAAALHVEAGQAAIRQFIDNAGDCRFLQSIKTFAASPLFQGTLIFAKRQSFEDLMEVFLRKLKTYAGSEWPGDVSTVIAGRPVRFAGSNPDETLALARYNEALTRAGFPEIHYVYEPVAAAYYFAQSLKKDANVLVADFGGGTTDYSLIRFETHAGKLSATPIGHSGVGVAGDHFDFRMIDNLVSPEIGKGSKFKSFDKVLDVPSGYYVNFGRWNQLSIFKTSKEFTDLKSLVRSALEPDKLELFIDLVEHDEGYPLYQAISATKMALSSAQEAEFNFSPLGKAGRKMVKRSDFNNWIADDLAKIEGALDEVLEKTKVAPEAIDKVFLTGGTSFVPAVRELFTRRFDADRIESGGELLSIAHGLAMIGESGDIQRWTA	not soluble
MSLSKNPTSGFRLTHVGLRVTDIDRSVTFYTSVFGMKELGRMGLDTTTVVFLGYPDAADPQTQLFAREGVLELKSQRGMAESNDYPDFRFVKLAIGVPDMATAMEHIRSHNVKILKEAGVAQGSEVVSTFLGCDMPDKGFDRPLWEAVVAVPFVEDPDGYLIEIIPYEGHHHHHH	soluble
MKEERRRLLAKVAYLHYVQGKSQTLISKEMNIYRTTVCRMLAKAKEEGIVRIEIADYDADLFALEEYVRQQYGLEKLDLVPNQVEDTPMDTLTNVAKTAAEVFRHVVKDGDKIGLSWGATLSCLMDELNPKAMKDVFIYPLAGGPSHINAKYHVNTLVYRLARIFHGNSAFMNAMVIQEDKHLAKGILQSKYFNDILTSWDQLDLALVGIGGEPNSLEQSQWRDLLTSSDHDQLKYEKAVGEVCCRFFDQAGQPVYTGLQDRTIGISLEQLRRVPKTMAVATGKHKAKAILAALKAGFINYLVTDKETMLAVLALDEDIDLNNVLL	not soluble
MGSDKIHHHHHHVAELVFFSGTMDCGKSTLALQMDHNHRARGRGGVRFSRNDRAGGARISSRLGLETDCVEVLDTTDFWDEVIERRTRGLRVDYLICDEAQFYSPLQVEQLARIVDEIDVDVFAFGISADFRTRLFPGSQRLIELADRVQVLQVEALCWCGRRATHNARTVDGVMVTEGAQVVVGDVDMAGDPASASADHAPVVGYETLCRRHFMRRVTAHGANVMAQQDQLLPFEVDACLWHGSGETRHS	not soluble
MTSPSSASPDGHGARLDAQSIRFERLLPGPIERVWAWLADADKRARWLAGGELPRQPGQTFELHFNHAALTAETAPARYAQYDRPIVARHTLLRCEPPRVLALTWGGGAGEAPSEVLFELSEAGEQVRLVLTHTRLADRAAMLDVAGGWHAHLAVLAGKLAGQAPPPFWTTLAQAEQDYEQRLLEHHHHHH	soluble
CSSPKPDAEEQGVPVSPTASDPALLAEIRQSLDATKGLTSVHVAVRTTGKVDSLLGITSADVDVRANPLAAKGVCTYNDEQGVPFRVQGDNISVKLFDDWSNLGSISELSTSRVLDPAAGVTQLLSGVTNLQAQGTEVIDGISTTKITGTIPASSVKMLDPGAKSARPATVWIAQDGSHHLVRASIDLGSGSIQLTQSKWNEPVNVD	soluble
MGSDKIHHHHHHMIPSSMKAMVLKGHGGIDQLMYQDVPVPQPREGEVLVQVTATAKNNTDRKAREGLYPTKKGEMTSFQMGGKPTLTFPRIQGADIVGRIVAVGAGVSEQRIGERGLLDFNIYADNRTDINLTPDYYGHGADGGYAEYVALPSDQFHHIPNPDLADAELASMGMCSYQTAYHMLTSANIQAGERVLVTGASGGVGTALIQLCRIIGAIPYALSQKDKADSLLKLGAEAVLDRTDMDSFVDRVKAETGGKPLDAVMDLVGGDMTDRFIDAMIFDMNARSTYPRLSIAGASGGNISEILWTRIYLYQVQIFGVSHGTREEAEQLMRWIRSGDLKPVLHGAFRLSELHRAEEYFVNRGSNYLGKIVIVPDAQWQEHGQPYEVEAD	not soluble
MKHEIKHDPAFRALTPKWHHGYRFQYEPAQKAHVVLYPEGMIKLNDSASLIGGLIDGERTIAAIIAELQREFPNIPELGMDVDDFMKVAKEKYWIDLV	not soluble
CPQEDSDIAFLIDGSGSIIPHDFRRMKEFVSTVMEQLKKSKTLFSLMQYSEEFRIHFTFKEFQNNPNPRSLVKPITQLLGRTHTATGIRKVVRELFNITNGARKNAFKILVVITDGEKFGDPLGYEDVIPEADREGVIRYVIGVGDAFRSEKSRQELNTIASKPPRDHVFQVNNFEALKTIQNQLREKIFAIGSPGI	soluble
